Assays:
[1] = molecular target: β clamp-α subunit of DNA Polymerase III interaction (Escherichia coli, UniProt P0A988); conditions: peptide 1, 10, 25 μM; α subunit 6 nM
Description: (§1) Briefly, P16 peptide and a control peptide (CLIP) were diluted in 20 mM NaHCO3 at concentrations of 250, 100 and 10 pmol/μl. 5′ end radiolabelling, purification and annealing of synthetic primers were performed as previously described (Wagner et al., 1999).
All replication experiments (10 μl final volume) were carried out in buffer E (40 mM HEPES pH 7.5, 80 mM potassium glutamate, 160 μg/ml BSA, 16% glycerol, 0.016% NP40, 8 mM DTT). The 30/90 nucleotide hybrid was first incubated with single strand binding proteins (SSB; Sigma; 90 nM final concentration) in the presence of ATP (200 μM) and MgCl2 (7.5 mM) at 37° C. for 10 min. When specified, the γ complex (1 nM final concentration) (gift from Dr. C. S. McHenry, Denver, USA), and the β clamp (5 nM as dimer final concentration) were added at that stage, and incubation was carried out at 37° C. for 10 min. Then, 7 μl of the mixture was added to 1 μl of either 20 mM NaHCO3 or 1 μl of peptide solution (1, 10 or 25 μM final concentration), incubated 20 min. at room temperature and farther 2 hours at 4° C.

[2] = molecular target: T1, Pol IV DNA polymerase (Escherichia coli, UniProt Q47155); test: intrinsic (β-independent) activity of Pol IV, primer extension on β free primer/template; type: biochemical; conditions: peptide 1, 10, 25 μM, Pol IV 1.5 nM
T1 sequence (Q47155 1-351): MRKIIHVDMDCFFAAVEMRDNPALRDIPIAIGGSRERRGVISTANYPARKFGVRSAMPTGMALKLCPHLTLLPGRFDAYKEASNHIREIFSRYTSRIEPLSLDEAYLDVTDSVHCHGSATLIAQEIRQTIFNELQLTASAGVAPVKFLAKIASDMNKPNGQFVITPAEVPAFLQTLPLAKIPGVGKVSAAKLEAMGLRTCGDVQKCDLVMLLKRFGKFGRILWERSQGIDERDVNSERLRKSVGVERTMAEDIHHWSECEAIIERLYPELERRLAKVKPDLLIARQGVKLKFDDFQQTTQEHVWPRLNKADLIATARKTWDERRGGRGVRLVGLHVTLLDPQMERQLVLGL
Description: FIG. 3A represents the migration pattern of an electrophoresis gel. β free (lanes 1-4 and 9-12) or β loaded (lanes 5-8 and 13-16) labelled primer/template hybrids are incubated with increasing amounts of control peptide (CLIP) (lanes 1-8) or P16 peptide (lanes 9-16). Concentrations of peptides are as follows: 0 μM, lanes 1, 5, 9 and 13; 1 μM, lanes 2, 6, 10 and 14; 10 μM, lanes 3, 7, 11 and 15; 25 μM, lanes 4, 8, 12 and 16. This mixture is then submitted to the enzymatic activity of Pol IV (1.5 nM) in the presence of each four dNTPs for 1 minute at room temperature. Beside the overall increase in DNA synthesis activity, the β-dependent activity of the polymerase is characterised by the apparition of synthesis products longer than 12 nucleotides (β dependent synthesis), β independent synthesis is characterised by products shorter than 12 nucleotides. […] FIG. 3B represents the quantitative analysis of the relative amounts of each β-independent (incorporation of 1 up to 12 nucleotides) and β-dependent (12 and more nucleotides incorporation) activities observed in lanes 5-8 and 13-16. Black and white rectangles represent the ratio of β-dependent to β-independent polymerase activities (vertical axis) in the presence of specified amounts of CLIP and P16 peptides (horizontal axis), respectively. […]

[3] = molecular target: β clamp-Pol IV DNA polymerase interaction (Escherichia coli, UniProt P0A988); conditions: Pol IV 1.5 nM; for effect on β-dependent Pol IV activity: peptide 1, 10, 25 μM
Description: FIG. 3A represents the migration pattern of an electrophoresis gel. β free (lanes 1-4 and 9-12) or β loaded (lanes 5-8 and 13-16) labelled primer/template hybrids are incubated with increasing amounts of control peptide (CLIP) (lanes 1-8) or P16 peptide (lanes 9-16). Concentrations of peptides are as follows: 0 μM, lanes 1, 5, 9 and 13; 1 μM, lanes 2, 6, 10 and 14; 10 μM, lanes 3, 7, 11 and 15; 25 μM, lanes 4, 8, 12 and 16. This mixture is then submitted to the enzymatic activity of Pol IV (1.5 nM) in the presence of each four dNTPs for 1 minute at room temperature. Beside the overall increase in DNA synthesis activity, the β-dependent activity of the polymerase is characterised by the apparition of synthesis products longer than 12 nucleotides (β dependent synthesis), β independent synthesis is characterised by products shorter than 12 nucleotides. […] FIG. 3B represents the quantitative analysis of the relative amounts of each β-independent (incorporation of 1 up to 12 nucleotides) and β-dependent (12 and more nucleotides incorporation) activities observed in lanes 5-8 and 13-16. Black and white rectangles represent the ratio of β-dependent to β-independent polymerase activities (vertical axis) in the presence of specified amounts of CLIP and P16 peptides (horizontal axis), respectively. Decrease in this ratio value actually indicates a specific inhibition of the β-dependent polymerase activity.
as §1
All replication experiments (10 μl final volume) were carried out in buffer E (40 mM HEPES pH 7.5, 80 mM potassium glutamate, 160 μg/ml BSA, 16% glycerol, 0.016% NP40, 8 mM DTT). The 30/90 nucleotide hybrid was first incubated with single strand binding proteins (SSB; Sigma; 90 nM final concentration) in the presence of ATP (200 μM) and MgCl2 (7.5 mM) at 37° C. for 10 min. […]

Chain of β clamp-Pol IV DNA polymerase interaction (P0A988 whole entry): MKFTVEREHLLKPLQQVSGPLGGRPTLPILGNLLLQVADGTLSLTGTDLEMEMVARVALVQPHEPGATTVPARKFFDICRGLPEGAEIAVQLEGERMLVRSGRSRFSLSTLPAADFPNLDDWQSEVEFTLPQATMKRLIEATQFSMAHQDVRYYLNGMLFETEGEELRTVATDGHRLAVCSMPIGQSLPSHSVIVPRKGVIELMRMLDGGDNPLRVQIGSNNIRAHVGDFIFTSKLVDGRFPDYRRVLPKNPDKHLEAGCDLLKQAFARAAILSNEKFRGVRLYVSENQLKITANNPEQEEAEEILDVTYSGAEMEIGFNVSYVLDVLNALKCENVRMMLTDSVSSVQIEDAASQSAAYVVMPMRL
Chain of β clamp-α subunit of DNA Polymerase III interaction (P0A988 whole entry): as above

Sequence | effect on α subunit β-dependent activity [1] | effect on intrinsic activity of Pol IV (distributive incorporation of one to up to 12 nucleotides) [2] | decrease of β-dependent Pol IV activity (factor) ([3]; highest P16 concentration tested, 25 μM, β clamp 5 nM) | effect on β-dependent Pol IV activity [3]
VTLLDPQMERQLVLGL (listed as Escherichia coli) [P16] | dose dependent inhibition | neither P16 nor CLIP peptides do affect | around 30 | inhibits the β-dependent activity of Pol IV
RPVKVTPNGAEDESAEAFPLEF (Control peptide) [CLIP, reference compound] | – | neither P16 nor CLIP peptides do affect | – | no effect
